Substitutions are numbered along the chain they refer to.
What was measured:
bile salts [1] = assay: Specificity testing of the CadC-TcpP bactosensor across a panel of twelve bile salts
Taurocholic acid = format: cell-based, E. coli
bile salts [2] = format: cell-based, E. coli; conditions: kinetic analysis, data not shown

B1: TcpPwt: Wild-type V. cholerae TcpP bile salt sensing domain, loop NYEQ (SEQ ID NO:4/24), fused to E. coli CadC DNA binding domain (SEQ ID NO:48) (protein)
chain: MQQPVVRVGEWLVTPSINQISRNGRQLTLEPRLIDLLVFFAQHSGEVLSRDELIDNVWKRSIVTNHVVTQSISELRKSLKDNDEDSPVYIATVPKRGYKLMVPVIWYSEEEGEEIMLSSPPPIPEAVPATDSPSHSLNIQNTATPPEQSPVKSKRVVPYLVFSALYVALLPVIWWSYGQWYQHELAGITHDLRDLARLPGITIQKLSEQKLTFAIDQHQCSVNYEQKTLECTKN
modifications: Synthetic bile salts chimeric receptor
response to secondary bile salts (bile salts [1]): did not respond
specificity across bile salts (bile salts [1]; primary and secondary types): highly specific for primary conjugated bile salts

B2: SV_3-3-16: TcpP bile salt sensing domain variant, loop DFLT (SEQ ID NO:9/29), CadC fusion SEQ ID NO:53 (protein)
chain: B1 chain with N223D, Y224F, E225L, Q226T
modifications: Synthetic bile salts chimeric receptor
EC50 (Taurocholic acid; taurocholic acid (TCA) as ligand, GFP output): 42.1 µM
Max fold change (Taurocholic acid; taurocholic acid titration): 75.73

B3: SV_3-3-18: TcpP bile salt sensing domain variant, loop VFSD (SEQ ID NO:10/30), CadC fusion SEQ ID NO:54; best engineered variant (protein)
chain: B1 chain with N223V, Y224F, E225S, Q226D
modifications: Synthetic bile salts chimeric receptor
response speed at low ligand concentration compared to wt TcpP (bile salts [2]): faster response at low ligand concentration
